In the supplement of paper PMC10724198:
± gives the standard deviation of the averaged measurements.

Assays:
[1] = test system: Saccharomyces cerevisiae; test: protein stability index of tFT-peptide fusion (C-terminal peptide) (PSI (0-1 scale)); higher = more stable (slower turnover)
Description: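 MPS profiling in S. cerevisiae of the tFT-X12 degron library: putative degron peptides plus stable controls, 12 aa, fused to the C-terminus of a sfGFP-mCherry timer. Cells are FACS-sorted into 8 mCherry/sfGFP bins and deep-sequenced. PSI runs from 0 (unstable) to 1 (stable). Backgrounds are wild type, das1Δ and doa10Δ at 30 °C, and wild type, das1Δ, cdc34-1 and cdc53-1 at 37 °C; 2-3 technical replicates each.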

[2] = test system: Saccharomyces cerevisiae; test: as above; settings: genetic background: wild type; temperature: 30 C
[3] = genetic background: cdc34-1, temperature: 37 C
[4] = genetic background: cdc53-1, temperature: 37 C
[5] = genetic background: das1 deletion, temperature: 30 C
[6] = genetic background: das1 deletion, temperature: 37 C
[7] = genetic background: doa10 deletion, temperature: 30 C
[8] = genetic background: wild type, temperature: 30 C
[9] = genetic background: wild type, temperature: 37 C
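Further: PSI is a weighted mean of sequencing reads over stability bins, variants kept only with over 10 reads, mCherry proximal and sfGFP distal, peptide attached via GGGS linker.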

| Sequence | protein stability index [1, 3] | protein stability index [1, 4] | protein stability index [1, 5] | protein stability index [1, 6] | protein stability index [1, 7] | protein stability index [1, 8] | protein stability index [1, 9] | protein stability index [2] |
| --- | --- | --- | --- | --- | --- | --- | --- | --- |
| EWLITLRKCGVA | 0.606 ± 0.03 | 0.613 ± 0.011 | 0.478 ± 0.026 | 0.6107 ± 0.006 | 0.397 ± 0.0075 | 0.423 ± 0.027 | 0.533 ± 0.006 | 0.463 ± 0.048 |
| EWRPYKRNKQSS | 0.63 ± 0.011 | 0.759 ± 0.053 | 0.638 ± 0.028 | 0.755 ± 0.023 | 0.223 ± 0.016 | 0.211 ± 0.028 | 0.4112 ± 0.0037 | 0.353 ± 0.13 |
| EWVGIFRGVSVF | 0.2846 ± 0.0011 | 0.293 ± 0.0067 | 0.256 ± 0.032 | 0.4158 ± 0.003 | 0.224 ± 0.02 | 0.267 ± 0.022 | 0.374 ± 0.0073 | 0.371 ± 0.0074 |
| FAKRVARVAREH | 0.677 ± 0.052 | 0.725 ± 0.018 | 0.6452 ± 0.0051 | 0.726 ± 0.012 | 0.17 ± 0.024 | 0.219 ± 0.0058 | 0.383 ± 0.014 | 0.33 ± 0.021 |
| FALFLFFGPLIV | 0.435 ± 0.066 | 0.486 ± 0.012 | 0.301 ± 0.056 | 0.52344 ± 0.00026 | 0.335 ± 0.019 | 0.331 ± 0.011 | 0.4857 ± 0.0017 | 0.4287 ± 0.0032 |
| FASFLFFCYIIF | 0.124 ± 0.042 | 0.118 ± 0.0078 | 0.192 ± 0.034 | 0.2631 ± 0.00071 | 0.24 ± 0.022 | 0.154 ± 0.04 | 0.213 ± 0.018 | 0.197 ± 0.0022 |
| FCCFFPFLWRVF | 0.593 ± 0.028 | 0.609 ± 0.034 | 0.541 ± 0.013 | 0.663 ± 0.017 | 0.317 ± 0.009 | 0.322 ± 0.016 | 0.455 ± 0.0052 | 0.378 ± 0.018 |
| FCFYLLFLGFTR | 0.475 ± 0.035 | 0.512 ± 0.042 | 0.364 ± 0.027 | 0.546 ± 0.053 | 0.37 ± 0.01 | 0.324 ± 0.018 | 0.523 ± 0.029 | 0.431 ± 0.011 |
| FCLFFFPSLFFF | 0.57 ± 0.11 | 0.538 ± 0.024 | 0.529 ± 0.042 | 0.604 ± 0.023 | 0.333 ± 0.012 | 0.295 ± 0.026 | 0.443 ± 0.017 | 0.371 ± 0.016 |
| FCRLCYLLLFCC | 0.37 ± 0.044 | 0.414 ± 0.012 | 0.404 ± 0.025 | 0.531 ± 0.022 | 0.211 ± 0.0056 | 0.196 ± 0.016 | 0.20208 ± 0.0002 | 0.254 ± 0.022 |
| FELVWLCIIGAL | 0.415 ± 0.012 | 0.507 ± 0.031 | 0.331 ± 0.031 | 0.516 ± 0.01 | 0.106 ± 0.0082 | 0.122 ± 0.019 | 0.2271 ± 0.0017 | 0.173 ± 0.04 |
| FFCFFWLFHWFG | 0.512 ± 0.012 | 0.566 ± 0.022 | 0.485 ± 0.016 | 0.5875 ± 0.0025 | 0.4643 ± 0.0022 | 0.451 ± 0.015 | 0.5356 ± 0.0044 | 0.443 ± 0.028 |
| FFCSLIISRFLL | 0.542 ± 0.035 | 0.608 ± 0.014 | 0.511 ± 0.018 | 0.62 ± 0.02 | 0.139 ± 0.012 | 0.168 ± 0.033 | 0.299 ± 0.0054 | 0.214 ± 0.04 |
| FFFFFIHFLCYF | 0.239 ± 0.019 | 0.208 ± 0.0039 | 0.249 ± 0.034 | 0.383 ± 0.021 | 0.288 ± 0.0065 | 0.239 ± 0.047 | 0.357 ± 0.0053 | 0.31 ± 0.035 |
| FFFFFLLFFLRV | 0.229 ± 0.027 | 0.247 ± 0.007 | 0.303 ± 0.046 | 0.343 ± 0.018 | 0.313 ± 0.005 | 0.233 ± 0.018 | 0.313 ± 0.0043 | 0.303 ± 0.04 |
| FFFFLVPVHCVI | 0.261 ± 0.029 | 0.371 ± 0.028 | 0.261 ± 0.035 | 0.452 ± 0.021 | 0.239 ± 0.023 | 0.249 ± 0.024 | 0.406 ± 0.018 | 0.358 ± 0.02 |
| FFFFSVHLSFLD | 0.122 ± 0.0052 | 0.295 ± 0.018 | 0.178 ± 0.04 | 0.365 ± 0.029 | 0.179 ± 0.0073 | 0.176 ± 0.028 | 0.305 ± 0.024 | 0.31 ± 0.013 |
| FFFLILFPLSYS | 0.4518 ± 0.0042 | 0.526 ± 0.044 | 0.376 ± 0.028 | 0.5472 ± 0.0028 | 0.3517 ± 0.0033 | 0.372 ± 0.0098 | 0.513 ± 0.041 | 0.49 ± 0.072 |
| FFFLVRLCRLCV | 0.478 ± 0.043 | 0.558 ± 0.02 | 0.46 ± 0.019 | 0.575 ± 0.025 | 0.266 ± 0.0098 | 0.261 ± 0.011 | 0.353 ± 0.0078 | 0.292 ± 0.055 |
| FFIMFFDFWGYF | 0.378 ± 0.01 | 0.462 ± 0.021 | 0.335 ± 0.023 | 0.624 ± 0.075 | 0.319 ± 0.0034 | 0.373 ± 0.047 | 0.57 ± 0.028 | 0.447 ± 0.079 |

| Sequence | protein stability index [1, 3] | protein stability index [1, 4] | protein stability index [1, 5] | protein stability index [1, 6] | protein stability index [1, 7] | protein stability index [1, 8] | protein stability index [1, 9] | protein stability index [2] |
| --- | --- | --- | --- | --- | --- | --- | --- | --- |
| FFLRFGLFLFTL | 0.491 ± 0.0061 | 0.5109 ± 0.004 | 0.429 ± 0.017 | 0.564 ± 0.0091 | 0.4004 ± 0.0018 | 0.367 ± 0.05 | 0.4928 ± 0.0041 | 0.421 ± 0.049 |
| FFSCFFFSVLYR | 0.2699 ± 0.00059 | 0.214 ± 0.018 | 0.302 ± 0.042 | 0.425 ± 0.031 | 0.469 ± 0.022 | 0.302 ± 0.029 | 0.384 ± 0.018 | 0.377 ± 0.035 |
| FFVYRFFSLSVC | 0.146 ± 0.0021 | 0.209 ± 0.0047 | 0.13 ± 0.032 | 0.247 ± 0.0028 | 0.0301 ± 0.0028 | 0.0256 ± 0.0079 | 0.0647 ± 0.011 | 0.07222 ± 0.00031 |
| FGCCLYFCFWGL | 0.455 ± 0.0063 | 0.519 ± 0.011 | 0.386 ± 0.026 | 0.524 ± 0.0085 | 0.3524 ± 0.0025 | 0.372 ± 0.018 | 0.491 ± 0.016 | 0.433 ± 0.005 |
| FHLVIYWCVRGP | 0.337 ± 0.013 | 0.453 ± 0.088 | 0.299 ± 0.035 | 0.45 ± 0.0086 | 0.2623 ± 0.0021 | 0.281 ± 0.053 | 0.474 ± 0.034 | 0.428 ± 0.034 |
| FICYDRILTVYY | 0.479 ± 0.0097 | 0.564 ± 0.045 | 0.394 ± 0.029 | 0.524 ± 0.026 | 0.369 ± 0.043 | 0.368 ± 0.024 | 0.489 ± 0.031 | 0.454 ± 0.034 |
| FIVVSFCFFLFF | 0.331 ± 0.06 | 0.382 ± 0.0069 | 0.301 ± 0.023 | 0.4351 ± 0.0036 | 0.31 ± 0.03 | 0.263 ± 0.045 | 0.414 ± 0.013 | 0.343 ± 0.067 |
| FKFGVFDFRFLC | 0.451 ± 0.063 | 0.686 ± 0.031 | 0.623 ± 0.011 | 0.7617 ± 0.0049 | 0.0716 ± 0.0051 | 0.0879 ± 0.036 | 0.115 ± 0.031 | 0.109 ± 0.06 |
| FLFFLFVVFVFV | 0.256 ± 0.041 | 0.35 ± 0.046 | 0.305 ± 0.022 | 0.379 ± 0.0046 | 0.323 ± 0.015 | 0.286 ± 0.013 | 0.3692 ± 0.0023 | 0.41 ± 0.07 |
| FLFFRFLVGCCF | 0.406 ± 0.0083 | 0.396 ± 0.0095 | 0.339 ± 0.032 | 0.4545 ± 0.0039 | 0.29943 ± 0.00022 | 0.311 ± 0.0085 | 0.427 ± 0.017 | 0.3731 ± 0.003 |
| FLIFFVCLFRWK | 0.185 ± 0.0059 | 0.243 ± 0.0062 | 0.231 ± 0.023 | 0.3191 ± 0.0023 | 0.21 ± 0.025 | 0.235 ± 0.029 | 0.301 ± 0.0041 | 0.328 ± 0.0066 |
| FLLLDFMLVSLV | 0.498 ± 0.015 | 0.5175 ± 0.0029 | 0.404 ± 0.022 | 0.543 ± 0.011 | 0.371 ± 0.029 | 0.412 ± 0.036 | 0.521 ± 0.037 | 0.483 ± 0.011 |
| FLLLVVYVSLYS | 0.143 ± 0.0068 | 0.207 ± 0.039 | 0.183 ± 0.033 | 0.2973 ± 0.00095 | 0.133 ± 0.0063 | 0.156 ± 0.032 | 0.224 ± 0.034 | 0.216 ± 0.1 |
| FLLSFFGLVFFW | 0.39 ± 0.029 | 0.437 ± 0.0046 | 0.37 ± 0.018 | 0.446 ± 0.0048 | 0.397 ± 0.0073 | 0.374 ± 0.014 | 0.449 ± 0.024 | 0.397 ± 0.0048 |
| FLPLFFLPCLSV | 0.363 ± 0.0091 | 0.372 ± 0.031 | 0.318 ± 0.011 | 0.431 ± 0.015 | 0.315 ± 0.011 | 0.319 ± 0.019 | 0.413 ± 0.0059 | 0.361 ± 0.022 |
| FLSPPPFLALLP | 0.7 ± 0.03 | 0.758 ± 0.022 | 0.675 ± 0.015 | 0.76275 ± 0.00029 | 0.691 ± 0.028 | 0.6908 ± 0.0045 | 0.717 ± 0.014 | 0.723 ± 0.023 |
| FLSRHFLFLSFV | 0.467 ± 0.036 | 0.489 ± 0.047 | 0.505 ± 0.019 | 0.6779 ± 0.0061 | 0.4114 ± 0.0017 | 0.308 ± 0.031 | 0.443 ± 0.006 | 0.409 ± 0.016 |
| FPFHSRPCLPVL | 0.567 ± 0.0099 | 0.576 ± 0.11 | 0.475 ± 0.025 | 0.622 ± 0.041 | 0.4581 ± 0.0044 | 0.471 ± 0.012 | 0.5723 ± 0.0015 | 0.518 ± 0.056 |
| FPTLVRKFINAI | 0.448 ± 0.024 | 0.629 ± 0.052 | 0.56 ± 0.016 | 0.6825 ± 0.0019 | 0.0802 ± 0.011 | 0.0817 ± 0.014 | 0.123 ± 0.018 | 0.13 ± 0.0092 |
